From patent publication US20190338009A1 (ZEALAND PHARMA A S, published 2019)
Square brackets hold non-standard residues; d marks the D form. Aib = CC(C)(N)C(=O)O

T1: human GLP-2 receptor (hGLP2-R) (human, UniProt O95838 1-553)
T1 sequence (looked up): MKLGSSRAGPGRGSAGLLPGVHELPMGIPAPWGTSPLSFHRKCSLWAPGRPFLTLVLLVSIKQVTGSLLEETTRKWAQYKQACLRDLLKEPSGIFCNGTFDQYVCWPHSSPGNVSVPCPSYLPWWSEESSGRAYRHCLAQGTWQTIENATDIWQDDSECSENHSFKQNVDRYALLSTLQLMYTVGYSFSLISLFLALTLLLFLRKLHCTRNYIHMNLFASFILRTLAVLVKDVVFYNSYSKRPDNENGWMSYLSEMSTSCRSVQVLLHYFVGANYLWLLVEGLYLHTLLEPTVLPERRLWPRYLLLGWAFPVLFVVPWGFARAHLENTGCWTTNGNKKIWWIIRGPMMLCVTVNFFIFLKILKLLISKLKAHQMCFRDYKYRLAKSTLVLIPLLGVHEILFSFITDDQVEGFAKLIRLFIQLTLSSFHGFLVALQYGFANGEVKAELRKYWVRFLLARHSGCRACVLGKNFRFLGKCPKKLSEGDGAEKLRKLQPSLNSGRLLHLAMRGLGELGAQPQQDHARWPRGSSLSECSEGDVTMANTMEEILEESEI

B1: Compound 41 (peptide)
peptide: H-H[Aib]EGSFSSELATILDEQAARDFIAWLIQHKITD-OH
SMILES: CC[C@H](C)[C@H](NC(=O)[C@H](Cc1ccccc1)NC(=O)[C@H](CC(=O)O)NC(=O)[C@H](CCCNC(=N)N)NC(=O)[C@H](C)NC(=O)[C@H](C)NC(=O)[C@H](CCC(N)=O)NC(=O)[C@H](CCC(=O)O)NC(=O)[C@H](CC(=O)O)NC(=O)[C@H](CC(C)C)NC(=O)[C@@H](NC(=O)[C@@H](NC(=O)[C@H](C)NC(=O)[C@H](CC(C)C)NC(=O)[C@H](CCC(=O)O)NC(=O)[C@H](CO)NC(=O)[C@H](CO)NC(=O)[C@H](Cc1ccccc1)NC(=O)[C@H](CO)NC(=O)CNC(=O)[C@H](CCC(=O)O)NC(=O)C(C)(C)NC(=O)[C@@H](N)Cc1c[nH]cn1)[C@@H](C)O)[C@@H](C)CC)C(=O)N[C@@H](C)C(=O)N[C@@H](Cc1c[nH]c2ccccc12)C(=O)N[C@@H](CC(C)C)C(=O)N[C@H](C(=O)N[C@@H](CCC(N)=O)C(=O)N[C@@H](Cc1c[nH]cn1)C(=O)N[C@@H](CCCCN)C(=O)N[C@H](C(=O)N[C@H](C(=O)N[C@@H](CC(=O)O)C(=O)O)[C@@H](C)O)[C@@H](C)CC)[C@@H](C)CC
B2: Compound 37 (peptide)
peptide: H-H[Aib]EGTFTSELATILDEQAARDFINWLKEQKITD-OH
SMILES: CC[C@H](C)[C@H](NC(=O)[C@H](Cc1ccccc1)NC(=O)[C@H](CC(=O)O)NC(=O)[C@H](CCCNC(=N)N)NC(=O)[C@H](C)NC(=O)[C@H](C)NC(=O)[C@H](CCC(N)=O)NC(=O)[C@H](CCC(=O)O)NC(=O)[C@H](CC(=O)O)NC(=O)[C@H](CC(C)C)NC(=O)[C@@H](NC(=O)[C@@H](NC(=O)[C@H](C)NC(=O)[C@H](CC(C)C)NC(=O)[C@H](CCC(=O)O)NC(=O)[C@H](CO)NC(=O)[C@@H](NC(=O)[C@H](Cc1ccccc1)NC(=O)[C@@H](NC(=O)CNC(=O)[C@H](CCC(=O)O)NC(=O)C(C)(C)NC(=O)[C@@H](N)Cc1c[nH]cn1)[C@@H](C)O)[C@@H](C)O)[C@@H](C)O)[C@@H](C)CC)C(=O)N[C@@H](CC(N)=O)C(=O)N[C@@H](Cc1c[nH]c2ccccc12)C(=O)N[C@@H](CC(C)C)C(=O)N[C@@H](CCCCN)C(=O)N[C@@H](CCC(=O)O)C(=O)N[C@@H](CCC(N)=O)C(=O)N[C@@H](CCCCN)C(=O)N[C@H](C(=O)N[C@H](C(=O)N[C@@H](CC(=O)O)C(=O)O)[C@@H](C)O)[C@@H](C)CC
B3: Compound 36 (peptide)
peptide: H-H[Aib]EGTFTSELATILDEQAARDFINWLKSYKITD-OH
SMILES: CC[C@H](C)[C@H](NC(=O)[C@H](Cc1ccccc1)NC(=O)[C@H](CC(=O)O)NC(=O)[C@H](CCCNC(=N)N)NC(=O)[C@H](C)NC(=O)[C@H](C)NC(=O)[C@H](CCC(N)=O)NC(=O)[C@H](CCC(=O)O)NC(=O)[C@H](CC(=O)O)NC(=O)[C@H](CC(C)C)NC(=O)[C@@H](NC(=O)[C@@H](NC(=O)[C@H](C)NC(=O)[C@H](CC(C)C)NC(=O)[C@H](CCC(=O)O)NC(=O)[C@H](CO)NC(=O)[C@@H](NC(=O)[C@H](Cc1ccccc1)NC(=O)[C@@H](NC(=O)CNC(=O)[C@H](CCC(=O)O)NC(=O)C(C)(C)NC(=O)[C@@H](N)Cc1c[nH]cn1)[C@@H](C)O)[C@@H](C)O)[C@@H](C)O)[C@@H](C)CC)C(=O)N[C@@H](CC(N)=O)C(=O)N[C@@H](Cc1c[nH]c2ccccc12)C(=O)N[C@@H](CC(C)C)C(=O)N[C@@H](CCCCN)C(=O)N[C@@H](CO)C(=O)N[C@@H](Cc1ccc(O)cc1)C(=O)N[C@@H](CCCCN)C(=O)N[C@H](C(=O)N[C@H](C(=O)N[C@@H](CC(=O)O)C(=O)O)[C@@H](C)O)[C@@H](C)CC
B4: Compound 39 (peptide)
peptide: H-H[Aib]EGTFSSELSTILEEQASREFIAWLIAHKITE-OH
SMILES: CC[C@H](C)[C@H](NC(=O)[C@H](CC(C)C)NC(=O)[C@H](Cc1c[nH]c2ccccc12)NC(=O)[C@H](C)NC(=O)[C@@H](NC(=O)[C@H](Cc1ccccc1)NC(=O)[C@H](CCC(=O)O)NC(=O)[C@H](CCCNC(=N)N)NC(=O)[C@H](CO)NC(=O)[C@H](C)NC(=O)[C@H](CCC(N)=O)NC(=O)[C@H](CCC(=O)O)NC(=O)[C@H](CCC(=O)O)NC(=O)[C@H](CC(C)C)NC(=O)[C@@H](NC(=O)[C@@H](NC(=O)[C@H](CO)NC(=O)[C@H](CC(C)C)NC(=O)[C@H](CCC(=O)O)NC(=O)[C@H](CO)NC(=O)[C@H](CO)NC(=O)[C@H](Cc1ccccc1)NC(=O)[C@@H](NC(=O)CNC(=O)[C@H](CCC(=O)O)NC(=O)C(C)(C)NC(=O)[C@@H](N)Cc1c[nH]cn1)[C@@H](C)O)[C@@H](C)O)[C@@H](C)CC)[C@@H](C)CC)C(=O)N[C@@H](C)C(=O)N[C@@H](Cc1c[nH]cn1)C(=O)N[C@@H](CCCCN)C(=O)N[C@H](C(=O)N[C@H](C(=O)N[C@@H](CCC(=O)O)C(=O)O)[C@@H](C)O)[C@@H](C)CC

Tests used:
[1] = biological target: T1, human GLP-2 receptor (hGLP2-R); experiment: cell-based or functional assay
[2] = biological target: human glucagon-like peptide 1 receptor (GLP-1R) (human, UniProt P43220 24-463); experiment: cell-based or functional assay

| Binder | EC50 GLP-2 (nM); cAMP AlphaScreen, HEK293 cells expressing human GLP-2R [1] [nM] | EC50 GLP-1 (nM); cAMP AlphaScreen, HEK293 cells expressing human GLP-1R [2] [nM] |
| --- | --- | --- |
| B1 | 0.026 | 0.078 |
| B2 | 0.16 | 0.007 |
| H-HGEGSFSSELATILDEQAARDFIAWLIQHKITD-NH2 [Compound 40] | 0.05 | 1.4 |
| B3 | 0.11 | 0.007 |
| H-HGEGTFTSELATILDEQAARDFIAWLIAHKITD-OH [Compound 38] | 0.043 | 0.008 |
| B4 | 0.96 | 0.03 |
